Earlier results, collected in PMC4301871, “WW Domains of the Yes-Kinase-Associated-Protein (YAP) Transcriptional Regulator Behave as Independent Units with Different Binding Preferences for PPxY Motif-Containing Ligands” (PLoS ONE, 2015).
Like-named read-outs stand apart in the source and are kept apart here.

Assays:
p53BP2 (Homo sapiens) [1] = biological target: p53BP2 (Homo sapiens)
p53BP2 (Homo sapiens) [2] = biological target: p53BP2 (Homo sapiens); remark: listed apart in the source

Chain of YAP WW1 (P46937 168-207): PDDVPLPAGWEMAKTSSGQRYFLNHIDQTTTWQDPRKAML
Chain of YAP WW2 (P46937 227-266): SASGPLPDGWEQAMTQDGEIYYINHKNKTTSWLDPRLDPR

Kd (p53BP2 (Homo sapiens) [1]) [µM] | Kd (p53BP2 (Homo sapiens) [2]) [µM] | Substance
12 | – | YAP WW2 (from UniProt P46937)
– | 1.8 | YAP WW1 (from UniProt P46937)
